Assay [1] concerns the target HLA-B*54:01. Kind of assay: IEDB peptide-MHC binding, purified MHC/competitive/radioactivity; filed as Kd, often an IC50 or EC50 that approximates it; ≥ and ≤ were set here for values at or beyond the usual limits of such assays.
Assay [2] has as its target HLA-B*07:02. The description is as above.
The target of assay [3] is HLA-B*51:01. The assay is described as above.
Assay [4] concerns the target HLA-B*53:01. The description is as above.
Assay [5] concerns the target HLA-B*35:01. The assay is described as above.
The target of assay [6] is HLA-B*18:01. Kind of assay: IEDB peptide-MHC binding, purified MHC/direct/fluorescence; filed as Kd, often an IC50 or EC50 that approximates it; ≥ and ≤ were set here for values at or beyond the usual limits of such assays.
In assay [7] the target is HLA-B*44:02. Kind of assay: IEDB peptide-MHC binding, purified MHC/competitive/radioactivity; filed as Kd, often an IC50 or EC50 that approximates it; ≥ and ≤ were set here for values at or beyond the usual limits of such assays.
Assay [8] deals with HLA-B*44:03. Described as above.
The target in assay [9] is HLA-B*40:02. The description is as above.
For assay [10], the target named is HLA-B*18:01. The assay is described as above.
In assay [11] the target is HLA-B*40:01. The assay is described as above.
For assay [12], the target named is HLA-B*45:01. Described as above.
The target of assay [13] is HLA-B*46:01. Kind of assay: IEDB peptide-MHC binding, purified MHC/direct/fluorescence; filed as Kd, often an IC50 or EC50 that approximates it; ≥ and ≤ were set here for values at or beyond the usual limits of such assays. Conditions: source organism: Yellow fever virus.
Where [14] appears, read: source organism: SARS coronavirus Tor2.
Setting [15] is: source organism: Dengue virus 1 Brazil/97-11/1997.
[16] abbreviates: source organism: Triticum aestivum.
The mark [17] stands for this setting: source organism: Vaccinia virus WR.
[18] abbreviates: source organism: Mammarenavirus lassaense.
[19] abbreviates: source organism: Mammarenavirus juninense.
[20] abbreviates: source organism: Lymphocytic choriomeningitis virus (strain Armstrong).
The mark [21] stands for this setting: source organism: Mammarenavirus guanaritoense.
Setting [22] is: source organism: Mammarenavirus machupoense.
Where [23] appears, read: source organism: Mammarenavirus brazilense.

The record followed here is the Immune Epitope Database (IEDB).

Consider LPDDFMGCVL, for which the Kd in [1] (setting [14]) was 5490 nM; in assay [2] (setting [14]), 105 nM; in [3] (setting [14]), 98.4 nM; in [4] (setting [14]), 499 nM; in [5] (setting [14]) it was 353 nM.

For MEVQLIRQM, the Kd in assay [6] (source organism: dengue virus type 1) was 1.5 nM; in assay [7] (setting [15]), 17.3 nM; in [8] (setting [15]), 18.9 nM.

In assay [6] (source organism: Yellow fever virus 17D), SEQGEFKLL came in with a Kd of 875 nM.

With YPSGQGSF, the Kd in assay [1] (setting [16]) is 13300 nM; in assay [2] (setting [16]) it was 11100 nM; in assay [3] (setting [16]), 998 nM; in [4] (setting [16]), 5150 nM; in assay [5] (setting [16]), 4880 nM.

Turning to FPANINDKQI, the Kd in [1] (setting [17]) stood at 13.8 nM; in [2] (setting [17]), 468 nM; in assay [3] (setting [17]), 145 nM; in assay [4] (setting [17]), 8.77 nM; in assay [5] (setting [17]), 384 nM.

With FPLCANGQVF, the Kd in assay [1] (setting [14]) was determined as 358 nM; in assay [2] (setting [14]), 87.1 nM; in assay [3] (setting [14]), 10.6 nM; in [4] (setting [14]) it was 1.94 nM; in assay [5] (setting [14]), 1.84 nM.

Consider DEDDSEPVL, for which the dissociation constant Kd was no less than 38300 nM in assay [7] (setting [14]); 3170 nM in [9] (setting [14]); 15800 nM in assay [8] (setting [14]); 5290 nM in assay [10] (setting [14]); 137 nM in [11] (setting [14]); 17900 nM in assay [12] (setting [14]).

In the case of KPESRPFDLI, the Kd in assay [1] (setting [17]) was 18500 nM; in [2] (setting [17]), 1380 nM; in assay [3] (setting [17]) it was no less than 69600 nM; in assay [4] (setting [17]), 18600 nM; in [5] (setting [17]), no less than 69900 nM.

Turning to AEVVKLPSRY, the Kd in assay [7] (setting [14]) was 144 nM; in assay [9] (setting [14]) it was no less than 22200 nM; in assay [8] (setting [14]) it was 76.4 nM; in [10] (setting [14]), 4990 nM; in assay [11] (setting [14]) it was 15000 nM; in assay [12] (setting [14]), 9830 nM.

Turning to IPFNVVTAM, the Kd was found to be 504 nM in assay [1] (setting [18]); 18.5 nM in [2] (setting [18]); 4230 nM in [3] (setting [18]); 73.9 nM in [4] (setting [18]); 5.25 nM in [5] (setting [18]).

With QELGHEDLM, the dissociation constant (Kd) in assay [7] (setting [14]) is 15400 nM; in assay [9] (setting [14]) it was 3000 nM; in [8] (setting [14]), 3710 nM; in assay [10] (setting [14]), no less than 31800 nM; in assay [11] (setting [14]), 5540 nM; in assay [12] (setting [14]) it was 2740 nM.

Take KDCVMYASAL: the Kd in [7] (setting [14]) was 10700 nM; in assay [9] (setting [14]), 3290 nM; in assay [8] (setting [14]), 11900 nM; in assay [10] (setting [14]), no less than 70500 nM; in [11] (setting [14]), no less than 60500 nM; in [12] (setting [14]), no less than 70000 nM.

Take AEAAVKPLL: the dissociation constant (Kd) in [7] (setting [14]) was 60.8 nM; in assay [9] (setting [14]), 19500 nM; in assay [8] (setting [14]), 53.6 nM; in assay [10] (setting [14]), no less than 77500 nM; in assay [11] (setting [14]), 8.43 nM; in assay [12] (setting [14]), 152 nM.

Turning to REFLTRNPAW, the Kd is 4.02 nM in [7] (setting [14]); 23.5 nM in assay [9] (setting [14]); 5.83 nM in assay [8] (setting [14]); no less than 33400 nM in [10] (setting [14]); 50.2 nM in assay [11] (setting [14]); 569 nM in [12] (setting [14]).

VLIEVNPPF displayed a Kd in assay [13] of no less than 20000 nM.

As for SPNLAWPLIV, the Kd in assay [1] (setting [14]) amounted to 556 nM; in [2] (setting [14]), 123 nM; in assay [3] (setting [14]), 2790 nM; in [4] (setting [14]), 1660 nM; in [5] (setting [14]), 887 nM.

For MPEKRNVVVV, the dissociation constant Kd came out at 40.6 nM in assay [1] (setting [17]); 194 nM in assay [2] (setting [17]); 2090 nM in [3] (setting [17]); 13200 nM in [4] (setting [17]); 4350 nM in assay [5] (setting [17]).

With YEQVVMDYL, the Kd in [7] (setting [14]) is 371 nM; in assay [9] (setting [14]), 30.2 nM; in assay [8] (setting [14]) it was 298 nM; in assay [10] (setting [14]), 349 nM; in [11] (setting [14]) it was 0.609 nM; in [12] (setting [14]) it was 3780 nM.

Regarding APATVCGPKL, the dissociation constant Kd was no less than 69900 nM in assay [1] (setting [14]); 30.4 nM in [2] (setting [14]); 7070 nM in assay [3] (setting [14]); no less than 50000 nM in [4] (setting [14]); no less than 69900 nM in assay [5] (setting [14]).

As for LPVNVAFEL, the Kd stood at 420 nM in assay [1] (setting [14]), 1.14 nM in [3] (setting [14]), 10.4 nM in [4] (setting [14]) and 1.89 nM in assay [5] (setting [14]).

Consider SEYKGPVTDV, for which the equilibrium dissociation constant (Kd) in assay [7] (setting [14]) is 17100 nM; in [9] (setting [14]) it was 22.9 nM; in assay [8] (setting [14]), 795 nM; in assay [10] (setting [14]) it was no less than 70500 nM; in [11] (setting [14]), 1000 nM; in assay [12] (setting [14]), 37.2 nM.

Turning to HDWHLDPPF, the dissociation constant (Kd) in [7] (setting [19]) was 18500 nM; in [9] (setting [19]), 22.1 nM; in assay [8] (setting [19]) it was 7960 nM; in [10] (setting [19]), 2390 nM; in assay [11] (setting [19]), no less than 72000 nM; in [12] (setting [19]), no less than 77700 nM.

Regarding EDQLLPFMS, the Kd was no less than 35200 nM in [7] (setting [20]); no less than 65400 nM in assay [9] (setting [20]); no less than 78100 nM in assay [8] (setting [20]); no less than 55500 nM in [10] (setting [20]); no less than 59300 nM in [11] (setting [20]); 3730 nM in assay [12] (setting [20]).

As to KDLQRLRSL, the Kd in assay [7] (setting [20]) is no less than 43600 nM; in [9] (setting [20]), 165 nM; in assay [8] (setting [20]) it was no less than 66000 nM; in assay [10] (setting [20]), 5860 nM; in assay [11] (setting [20]), 4490 nM; in assay [12] (setting [20]), no less than 43100 nM.

MPILTLTRAL: the Kd in assay [1] (setting [14]) came out at 85.4 nM; in assay [2] (setting [14]), 9.46 nM; in assay [3] (setting [14]), 8.24 nM; in assay [4] (setting [14]), 202 nM; in [5] (setting [14]) it was 13.7 nM.

DESALNISGY: the Kd is 10900 nM in assay [7] (setting [21]); no less than 29200 nM in assay [9] (setting [21]); 3370 nM in assay [8] (setting [21]); 22.5 nM in assay [10] (setting [21]); no less than 69500 nM in [11] (setting [21]); no less than 70000 nM in assay [12] (setting [21]).

For the sequence HESFDLAGLF, the Kd is 175 nM in assay [7] (setting [19]); 435 nM in assay [9] (setting [19]); 776 nM in assay [8] (setting [19]); 1140 nM in assay [10] (setting [19]); 1980 nM in assay [11] (setting [19]); 1760 nM in assay [12] (setting [19]).

In the case of MPVETLFGSY, the Kd in assay [1] (setting [17]) was 106 nM; in [2] (setting [17]), no less than 44000 nM; in [3] (setting [17]), no less than 69600 nM; in assay [4] (setting [17]) it was 2.28 nM; in [5] (setting [17]), 3.28 nM.

Regarding IPDELIDVL, the equilibrium dissociation constant (Kd) in [1] (setting [17]) is 12300 nM; in assay [2] (setting [17]), 373 nM; in assay [3] (setting [17]) it was 2180 nM; in assay [4] (setting [17]), 458 nM; in [5] (setting [17]) it was 256 nM.

On to STFVSAARQG, for which the Kd in [7] (setting [14]) is 237 nM; in assay [9] (setting [14]) it was 535 nM; in assay [8] (setting [14]) it was 394 nM; in assay [10] (setting [14]), 8680 nM; in assay [11] (setting [14]), 8590 nM; in [12] (setting [14]), 2010 nM.

For the sequence AEGSRGGSQA, the equilibrium dissociation constant (Kd) in assay [7] (setting [14]) is 8480 nM; in [9] (setting [14]), 18800 nM; in assay [8] (setting [14]), 14600 nM; in assay [10] (setting [14]), no less than 70500 nM; in assay [11] (setting [14]) it was no less than 27900 nM; in assay [12] (setting [14]), 205 nM.

With EEPAALLPLS, the Kd was 3410 nM in assay [7] (setting [22]); 859 nM in assay [9] (setting [22]); no less than 20000 nM in assay [8] (setting [22]); 11500 nM in [10] (setting [22]); 12000 nM in [11] (setting [22]); 211 nM in assay [12] (setting [22]).

PPFTQHLLNI: the Kd in assay [1] (setting [17]) is no less than 69900 nM; in [2] (setting [17]), no less than 69600 nM; in assay [3] (setting [17]) it was 12500 nM; in assay [4] (setting [17]), no less than 20900 nM; in assay [5] (setting [17]), no less than 69900 nM.

For HDLMKQKCL, the equilibrium dissociation constant (Kd) is no less than 77900 nM in assay [7] (setting [18]); 1570 nM in assay [9] (setting [18]); no less than 78100 nM in assay [8] (setting [18]); no less than 77500 nM in [10] (setting [18]); no less than 40000 nM in [11] (setting [18]); 19100 nM in [12] (setting [18]).

As to APFMSDLQF, the Kd was no less than 36300 nM in assay [1] (setting [23]); 148 nM in assay [2] (setting [23]); no less than 39300 nM in [3] (setting [23]); 31.9 nM in [4] (setting [23]); 7.55 nM in assay [5] (setting [23]).
